{"source": "paper PMC12148371", "about": "(iScience, 2025)", "target": "EBOV-GP-RBD without the glycan cap and MLD, displayed on the cell surface (EGPdcm, wild type) (Zaire ebolavirus)", "assay": "flow cytometry on cells", "data": [{"substance": "NPC1-His (from UniProt O15118 23-1278) (receptor)", "values": [{"measurement": "percent NPC1 binding (positive cells)", "result": 94.7, "unit": "%"}, {"measurement": "percent NPC1 binding (positive cells), without competitor", "result": 76.4, "unit": "%"}]}]}
